# Experimental data: doi:10.1101/2025.02.07.637169, “Structural basis of flagellar rod assembly on the FliPQR protein-export channel” (bioRxiv, 2025)
# T1: FliR-His (Salmonella enterica serovar Typhimurium, UniProt P54702 1-264)
# T1 construct: FliR of Salmonella enterica serovar Typhimurium; One FliR subunit stands in the FliP5-FliQ4-FliR1 complex; source: Salmonella SJW1368 carrying pMKM10001 (pTrcCES3/ FliP + FliQ + FliR-His); purified as FliPQR-His complex (LMNG, Ni-NTA, SEC), reconstituted in peptidisc; not shown: His tag (10 residues), C-terminal, kept
# T1 sequence: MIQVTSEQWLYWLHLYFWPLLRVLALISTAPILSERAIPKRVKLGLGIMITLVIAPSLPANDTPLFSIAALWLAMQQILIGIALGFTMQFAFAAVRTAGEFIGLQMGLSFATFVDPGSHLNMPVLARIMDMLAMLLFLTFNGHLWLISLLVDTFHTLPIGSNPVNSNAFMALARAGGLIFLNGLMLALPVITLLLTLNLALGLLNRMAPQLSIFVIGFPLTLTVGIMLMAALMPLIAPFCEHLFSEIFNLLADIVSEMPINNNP
# B1: FliP (natural protein)
# chain: QLPGLISQPLAGGGQSWSLSVQTLVFITSLTFLPAILLMMTSFTRIIIVFGLLRNALGTPSAPPNQVLLGLALFLTFFIMSPVIDKIYVDAYQPFSEQKISMQEALDKGAQPLRAFMLRQTREADLALFARLANSGPLQGPEAVPMRILLPAYVTSELKTAFQIGFTIFIPFLIIDLVIASVLMALGMMMVPPATIALPFKLMLFVLVDGWQLLMGSLAQSFYS
# notes: FliP of Salmonella enterica serovar Typhimurium, mature protein after cleavage of the signal peptide (residues 1-21; cleavage between Ala-21 and Gln-22); residue numbers count on the precursor; Five FliP subunits stand in the FliP5-FliQ4-FliR1 complex; also called mature FliP; FliP^A (Mol-A); source: Salmonella SJW1368 carrying pMKM10001 (pTrcCES3/ FliP + FliQ + FliR-His); purified as FliPQR-His …
# B2: FliQ (natural protein)
# chain: MTPESVMMMGTEAMKVALALAAPLLLVALITGLIISILQAATQINEMTLSFIPKIVAVFIAIIVAGPWMLNLLLDYVRTLFSNLPYIIG
# notes: FliQ of Salmonella enterica serovar Typhimurium; Four FliQ subunits stand in the FliP5-FliQ4-FliR1 complex; source: Salmonella SJW1368 carrying pMKM10001 (pTrcCES3/ FliP + FliQ + FliR-His); purified as FliPQR-His complex (LMNG, Ni-NTA, SEC), reconstituted in peptidisc
# What was measured:
# Test in all cases: cryo-EM structure; FliPQR-His complex purified from Salmonella membranes and reconstituted in a peptidisc, detergent-free (20 mM Tris-HCl pH 8.0, 150 mM NaCl), fluorinated Fos-Choline 0, 1.0 or 2.0 mM added before grid preparation; single-particle analysis, C1 symmetry, 3.0 Å; closed form
# [1] = biological target: the molecule itself
# FliR-His = biological target: T1, FliR-His; settings: both partners purified
# FliP = biological target: B1; settings: both partners purified
binder,measurement,setting,value
B1,stoichiometry N,[1],5 subunits
same,binding result,FliR-His,binds
B2,binding result,FliP,binds
same,binding result,FliR-His,binds
